Laboratory results published in US20200115464A1.

Key:
[1] = biological target: FcR on U937 cells; assay: cell-based or functional assay
[2] = biological target: human CD3 on Jurkat cells (CD3+, CD20- human T-cell line) (human) (UniProt P07766); assay: FACS, serially diluted antibody on Jurkat cells (CD3+, CD20-)
[3] = biological target: cynomolgus CD3 on T cells of cynomolgus PBMCs (mkT cells) (cynomolgus monkey); assay: FACS, serially diluted antibody on cynomolgus PBMC T cells (mkT cells)
[4] = biological target: His-tagged human FcγRIIA (H131) (human) (UniProt P12318); assay: SPR steady-state, His-captured FcγR, antibody injected, 25 C
[5] = biological target: His-tagged human FcγRIIA (R131) (human) (UniProt P12318); assay: as above
[6] = biological target: His-tagged human FcγRIIIA (F176) (human) (UniProt P08637); assay: as above
[7] = biological target: His-tagged human FcγRIIIA (V176) (human) (UniProt P08637); assay: as above
[8] = biological target: His-tagged cynomolgus FcγRIIIA (cynomolgus monkey) (UniProt Q8SPW2); assay: as above
[9] = biological target: His-tagged cynomolgus FcγRIIA (cynomolgus monkey); assay: as above
[10] = biological target: His-tagged cynomolgus FcγRIIB (cynomolgus monkey); assay: as above
[11] = biological target: His-tagged human FcγRIIIB (human) (UniProt O75015); assay: as above
[12] = biological target: His-tagged human FcγRI (human) (UniProt P12314); assay: SPR (Biacore T200), His-captured human FcγRI, antibody injected, 25 C
[13] = biological target: His-tagged human FcγRIIB (human) (UniProt P31994); assay: SPR steady-state, His-captured FcγR, antibody injected, 25 C
Chain of His-tagged human FcγRIIB (human) (P31994 46-217 limits assumed): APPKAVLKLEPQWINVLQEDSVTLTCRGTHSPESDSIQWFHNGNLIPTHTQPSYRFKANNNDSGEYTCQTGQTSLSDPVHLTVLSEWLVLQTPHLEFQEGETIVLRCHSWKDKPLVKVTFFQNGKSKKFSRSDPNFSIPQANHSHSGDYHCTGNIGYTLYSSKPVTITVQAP

Chain of His-tagged human FcγRI (human) (P12314 16-288 limits assumed): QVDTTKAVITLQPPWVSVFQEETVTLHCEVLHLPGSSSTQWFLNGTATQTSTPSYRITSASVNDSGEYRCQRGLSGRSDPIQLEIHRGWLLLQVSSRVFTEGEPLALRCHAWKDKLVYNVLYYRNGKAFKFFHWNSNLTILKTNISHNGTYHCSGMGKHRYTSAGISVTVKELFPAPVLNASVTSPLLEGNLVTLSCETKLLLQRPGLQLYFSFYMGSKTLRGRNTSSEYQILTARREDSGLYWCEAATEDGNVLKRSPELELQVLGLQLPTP
Chain of His-tagged cynomolgus FcγRIIIA (cynomolgus monkey) (Q8SPW2 17-208 limits assumed): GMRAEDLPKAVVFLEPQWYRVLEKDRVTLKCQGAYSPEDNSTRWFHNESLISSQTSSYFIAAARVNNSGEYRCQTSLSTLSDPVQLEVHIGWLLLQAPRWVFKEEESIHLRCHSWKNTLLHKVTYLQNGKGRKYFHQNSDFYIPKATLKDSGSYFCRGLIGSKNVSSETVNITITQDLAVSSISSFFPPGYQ
Chain of His-tagged human FcγRIIA (R131) (human) (P12318 36-218 H167R limits assumed): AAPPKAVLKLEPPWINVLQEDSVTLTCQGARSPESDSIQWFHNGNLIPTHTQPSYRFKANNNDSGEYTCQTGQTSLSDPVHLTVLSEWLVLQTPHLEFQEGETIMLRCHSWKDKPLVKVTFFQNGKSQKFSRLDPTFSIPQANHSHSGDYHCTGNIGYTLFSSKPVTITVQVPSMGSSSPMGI
Chain of His-tagged human FcγRIIA (H131) (human) (P12318 36-218 limits assumed): as the sequence (P12318 36-218 H167R limits assumed) above, with R132H counted along it
Chain of His-tagged human FcγRIIIA (F176) (human) (P08637 17-208 limits assumed): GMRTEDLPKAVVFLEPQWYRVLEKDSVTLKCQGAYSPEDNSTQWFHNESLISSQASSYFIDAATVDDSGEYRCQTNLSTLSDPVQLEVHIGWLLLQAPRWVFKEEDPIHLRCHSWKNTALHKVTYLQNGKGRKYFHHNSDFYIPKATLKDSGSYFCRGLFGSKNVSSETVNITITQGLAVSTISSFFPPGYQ
Chain of His-tagged human FcγRIIIA (V176) (human) (P08637 17-208 F176V limits assumed): as the sequence (P08637 17-208 limits assumed) above, with F160V counted along it
Chain of His-tagged human FcγRIIIB (human) (O75015 17-200 limits assumed): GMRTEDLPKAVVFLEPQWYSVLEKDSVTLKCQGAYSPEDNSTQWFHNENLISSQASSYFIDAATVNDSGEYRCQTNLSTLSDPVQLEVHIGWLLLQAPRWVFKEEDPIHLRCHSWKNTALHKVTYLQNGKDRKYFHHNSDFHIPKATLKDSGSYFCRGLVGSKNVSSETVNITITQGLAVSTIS

EC50 [2] [nM]	EC50 [3] [nM]	Kd [4] [nM]	Kd [5] [nM]	Kd [6] [nM]	Kd [7] [nM]	Kd [8] [nM]	Kd [9] [nM]	Kd [10] [nM]	Kd [11] [nM]	Kd [12] [nM]	T1/2 [12] [min]	koff [12] [s⁻¹]	kon [12] [M⁻¹ s⁻¹]	Kd [13] [nM]	Substance	U937 Cytotoxicity Human T-cells [M] (EC50, calcein release) [1]
0.196															Control Antibody 1: monoclonal antibody OKT-3 against human T-cell surface antigens	3.04e-12
	0.0703														Control Antibody 2: antibody SP34 reactive against the epsilon chain of the T3 complex on human T lymphocyte cells	
		11	20	13	15	6	42	42	23	4.3	15	0.000748	174000		wt-IgG1 Isotype Control (antibody)	
		120	100	260		58	193	96		13.9	5			98	wt-IgG4 CPPC Isotype Control (antibody)	
